Experiment: label from the status in PepcDB records

| Sequence | protein production |
| --- | --- |
| MASSAFAFPSYIITKGGLSTDSCKSTSLSSSRSLVTDLPSPCLKPNNNSHSNRRAKVCASLAEKGEYYSNRPPTPLLDTINYPIHMKNLSVKELKQLSDELRSDVIFNVSKTGGHLGSSLGVVELTVALHYIFNTPQDKILWDVGHQSYPHKILTGRRGKMPTMRQTNGLSGFTKRGESEHDCFGTGHSSTTISAGLGMAVGRDLKGKNNNVVAVIGDGAMTAGQAYEAMNNAGYLDSDMIVILNDNKQVSLPTATLDGPSPPVGALSSALSRLQSNPALRELREVAKGMTKQIGGPMHQLAAKVDEYARGMISGTGSSLFEELGLYYIGPVDGHNIDDLVAILKEVKSTRTTGPVLIHVVTEKGRGYPYAERADDKYHGVVKFDPATGRQFKTTNKTQSYTTYFAEALVAEAEVDKDVVAIHAAMGGGTGLNLFQRRFPTRCFDVGIAEQHAVTFAAGLACEGLKPFCAIYSSFMQRAYDQVVHDVDLQKLPVRFAMDRAGLVGADGPTHCGAFDVTFMACLPNMIVMAPSDEADLFNMVATAVAIDDRPSCFRYPRGNGIGVALPPGNKGVPIEIGKGRILKEGERVALLGYGSAVQSCLGAAVMLEERGLNVTVADARFCKPLDRALIRSLAKSHEVLITVEEGSIGGFGSHVVQFLALDGLLDGKLKWRPMVLPDRYIDHGAPADQLAEAGLMPSHIAATALNLIGAPREALF | failed |
| RSRRFAHLQLFAHLELPCWARIRDLLNIGLPIGISILMEGGLFIVTTLLIGRFGTDEIAAHQIALSVAQLCFMIPMGVAEATTVRIGHAVGRCDLLVMRRVAWAGYAIVIGTQTLSASVLLLGYDVIVAAYTDDLVVASLASKLLLFAAIFQFPDGLQMLSSGVLRGMKDTRVPM | failed |
| MLAILIFSFLLVILVAGNNSSAVSGTIIGSKMMNKSLALAITAVGYIAGYLLEGRFLQHAVNELLPFEPEYVLYAIIASFVIFTIAFFVKVPISLTMALVGSAIGLSLKLGYSSDARFLTEVIIAWIAAPLISVGSSYVFNDRLSKMRHGDIWRYASAIKVMPIVTAIFTAFTLGANTIGFLGDISGTAVFNEILISIGSVIGTFFFSSGIMKSVSQNMYMMKYTNAFSSQLISALVVEVSTLFSIPMSNTQTLTSAVLGAGLSYRAKAIYLKPFLYIVIMWILSPLIGMAFTYALA | failed |
| SSANEDQEMELEALRSIYEGDESFRELSPVSFQYRIGENGDPKAFLIEISWTETYPQTPPILSMNAFFNNTISSAVKQSILAKLQEAVEANLGTAMTYTLFEYAKDNKEQFMENHNPINSATSISNIISIETPNTAPSSKKKDKKEQLSKAQKRKLADKTDHKGELPRGWNWVDVVKHLSKTGSKDDE | failed |
| MGHHHHHHSHMVASWELRVEGRLLEDSALSKYDATKQKRKFSSFFKSLVIELDKDLYGPDNHLVEWHRTATTQETDGFQVKRPGDVNVRCTVLLMLDYQPPQFKLDPRLARLLGIHTQTRPVIIQALWQYIKTHKLQDPHEREFVI | failed |
| MTGVSDIQEAVAQIKAAGPSKPRLARDPVNQPMINNWVEAIGDRNPIYVDDAAARAAGHPGIVAPPAMIQVWTMMGLGGVRPKDDPLGPIIKLFDDAGYIGVVATNCEQTYHRYLLPGEQVSISAELGDVVGPKQTALGEGWFINQHIVWQVGDEDVAEMNWRILKFKPAGSPSSVPDDLDPDAMMRPSSSRDTAFFWDGVKAHELRIQRLADGSLRHPPVPAVWQDKSVPINYVVSSGRGTVFSFVVHHAPKVPGRTVPFVIALVELEEGVRMLGELRGADPARVAIGMPVRATYIDFPDWSLYAWEPDE | failed |
| MQLSHRPAETGDLETVAGFPQDRDELFYCYPKAIWPFSVAQLAAAIAERRGSTVAVHDGQVLGFANFYQWQHGDFCALGNMMVAPAARGLGVARYLIGVMENLAREQYKARLMKISCFNANAAGLLLYTQLGYQPRAIAERHDPDGRRVALIQMDKPLEP | not failed |
| MDKALTNRVIILSFDCLSALDFPILQKLPHFQSLIKKGTVVEKVEPIYPSVTYPSHSTIVTGNYPNKHGVVSNTLLQPGRESPDWHWYRKSIKGTTLYDEAHKANLTTAALLWPVTGRANIDYNLPEIFPNRPWQNQVLVSLFSGSPLYQLDLNRRFGHIRNGLSQPELDDFVLASAVHTIQTKKPNVMFVHFTDLDTQRHYHGFESKETIAAIHRHDERLGQIIQALKDSDLYEESTIIALGDHSALSENKAIQLNVLFHQKGLISVNSKGNLVDWKVYCQSCDGSAYVYVKDKNDTDTIREVQLLLEELLQHKQNGIEFILHDEDAKECGADGNCLFMLEAREGYYFTENYTGDFIKEITEKDVTPSKKYTFGTHGYSPTKPNYETIFIAAGKGIKSGVTIPYMRLIDEGPTIARLLGLHLGETDGSIVEDLLQL | failed |
| MKILIDGDACPKAVLQICLKKGRQYGIPVWTVASFNHEIASDHHIVVGNAPQETDLKVVNLSEAGDIIVTQDIGLAAMVLGKGARALSPTGKEYRPESIANLLEERELKAKYRRSLEHHHHHH | not failed |
| MKNRAWLYVILTCIFEIFWVFGFNTANTWWHWIIILGVIAVDFHFLSKACEHLATGTVYAVFAGAGTVGTFLMDVFLFGGSFSVGKLFFIVMVVAGVIGLKLADNKEETVEGAA | failed |
| MTMLLSIIVPTFKPQKTYFEECLFSLFNQTMFHYLYEVIVVLNGDIDTQYTDMILDIFAYKPAGLYCRLIKTDQAGVSNARNLGIDAAKGQYIGFVDDDDIVSSDYLEELCKISSRNIVGVSNVHTFRKTIEEKEDNFFACRIIQQRECQYSLFRNRAILAFPVAKLIHRDIIGNRRFNPRFKNGEDALFMTEISDLIGGFRFTKEYTTYYVRERAGSASRRPLKRGQLCWDTFMLIKAYVSIYLSSPFSYNFLLFASRIPGSIKGAIKLSRNTAFFLEHHHHHH | failed |
| MGMFERDTEIYLDRDALREDYQPENLVGRDTELNRYRAALQPVINGEQPNNIFLYGKTGVGKTAGTRYLIDHLEEDAAKYEDIDLTVKMLNCDGLSSSYQIATRLVNEFRDETSQISTTGYPRATVYDMLWTELDSCGGTIYIVLDEVDHIEDDSILYQLPRARANDNLSSAKIGIIGISNDFSFRDDLSPKVKSSLCEEEIQFPAYDAKELIQILQQRADVAFHDGVLEDGVIELCAAYGAKDAGDARQSLDLLMKTGDLARDKDTDTISEDLVREARDVLERGRIQEGISGLTQHGHLVVYAMVTLDQEGKTPARTRDIRPRYTNFAEKAGIDPLVPRRMRDHLGELSMLGIISAIERNEGRRGGTYREYSLEMDPEMILAALEKTVDDVGIHKSVTNLVDAEATLSDFQST | failed |
| DYIEGVIADISDVYDELRLRKQAEVALQASEAELRSLFSAIPDPLCVVTAQGRVIETVAGNPRQLYSSVEEKVGKTLHQIFEEEQADKFMGYIQQVLRTQQVLTVEYSLQIDGRETWFSARIAPIRHE | failed |
| MLFSASLIHRIEFAPQRELYFLALYRILEAGLIAALVFSPVSLLVDPESDPHLGTVVAVGYLLLATILLVWGRNERWFTPLVFGSTVADILAATLAIHALPKASAGIAMMLLFNVAAAAILLRLRFSMILAWIAGVAMLVEYIWTVLSEGDSSRSLAELLMFFTSYTAVAYMCHQAAQRARYSQALAEKRRAQIVNLAEINELIIRRMRTGVLVVDAANRIGLSNETAAALLGYDRQLVESDYDLATVAPELIMRLKCWRIGRHYEDTPLRLAPDQPEVQPRFVSLLADSGLTLIFLDDVSVVSRRAESLTLLALGRFSASLAHEIRNPLAAIKHASQLLEESSNLDKGDQRLLDIILKQCQRTNGIVESVLGLARRERANPENLDLVGFVSRFVDEYRQTLSSEYDNLEIQTLHSTVQALVDPRHLYQILAVLTHNALRYGRFPDTPAQVRIEVVYTGGSVGINVLDQGPGIPDAAVLQLFQPFFTTSDHGTGLGLYIARELCNANQSNLEYVAIPGGGACFRITLPGPYALIPN | failed |
| MGNNKNLHGHLFALTANVMWGLMSPIGKSALQEFSAISVTTFRMVGAAAAFWILSIFCKQEHVDHRDMLKIFFASLFALVFNQGIFIFGLSMTSPIDASIVTTTLPIVTMIVAAIYLKEPITNKKVLGIFVGAMGALILIMSSQAASSGNGSLIGDLLCLVAQISFSIYLTVFKGLSQRYSAVTINKWMFIYASMCYIPFSYQDISVIQWTSIPMVAILQVLYVVLGGSFLAYLCIMTAQKLLRPTVVSMYNYMQPIVATIAAILMGIGSFGWEKGIAITLVFLGVYIVTQSKSKADFEKAGKEL | failed |
| MVPPKLKQALELFKSLPKELRSQVLLEYAAKVPPPPPGVELERVHECQTPFFVHADVEGGKVRLYFHVPDEAPTVKAFAGLLREGLEGESPEAVLEVPPGFYRGYGLEEFFTPLRLRGLEAALLRLQAQVRKALTS | not failed |
